Experiments:
[1] = target: Sox2-HMG long (109 aa);Pax6-PRD R44Q (mouse;mouse?, UniProt P48432;P63015 41-149;4-130, |R44Q); assay: EMSA; cooperativity not affected by R44Q; EMSA: 10 mM Tris-HCl pH 8.0, 0.1 mg/ml BSA, 50 uM ZnCl2, 100 mM KCl, 10% glycerol, 0.1% IGEPAL CA-630, 2 mM 2-mercaptoethanol, 1-2 h, gel at 4 C, 100-300 nM DNA; NMR: 50 mM K phosphate, 100 mM NaCl, pH 7.0, 298 K; settings: protein: recombinant;recombinant; tags: ;; copies: 1;1; label: 5'-FAM or 5'-Cy5; blunt
[2] = target: Sox2-HMG long (109 aa);Pax2-PRD (mouse;mouse?, UniProt P48432;P32114 41-149;15-141, |); assay: EMSA; cooperative; EMSA: 10 mM Tris-HCl pH 8.0, 0.1 mg/ml BSA, 50 uM ZnCl2, 100 mM KCl, 10% glycerol, 0.1% IGEPAL CA-630, 2 mM 2-mercaptoethanol, 1-2 h, gel at 4 C, 100-300 nM DNA; NMR: 50 mM K phosphate, 100 mM NaCl, pH 7.0, 298 K; settings: protein: recombinant;recombinant; tags: ;; copies: 1;1; label: 5'-FAM or 5'-Cy5; blunt
Chain of Sox2-HMG long (109 aa);Pax2-PRD (P48432 41-149, chain 1 of 2): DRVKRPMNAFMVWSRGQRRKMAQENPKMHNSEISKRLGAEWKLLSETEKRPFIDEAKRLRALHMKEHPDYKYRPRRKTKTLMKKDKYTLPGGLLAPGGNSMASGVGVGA
Chain of Sox2-HMG long (109 aa);Pax2-PRD (P32114 15-141, chain 2 of 2): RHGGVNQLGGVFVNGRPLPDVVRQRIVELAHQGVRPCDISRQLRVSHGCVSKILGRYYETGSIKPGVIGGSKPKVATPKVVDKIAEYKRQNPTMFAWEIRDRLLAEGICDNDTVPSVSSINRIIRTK

[3] = target: Sox2-HMG long (109 aa);Pax8-PRD (mouse;mouse?, UniProt P48432;Q00288 41-149;9-135, |); assay: as above; settings: protein: recombinant;recombinant; tags: ;; copies: 1;1; label: 5'-FAM or 5'-Cy5; blunt
Chain of Sox2-HMG long (109 aa);Pax8-PRD (P48432 41-149, chain 1 of 2): as the sequence (P48432 41-149, chain 1 of 2) above
Chain of Sox2-HMG long (109 aa);Pax8-PRD (Q00288 9-135, chain 2 of 2): as the sequence (P32114 15-141, chain 2 of 2) above, with R1G, V5L, V11A, D20E, E28D, K64R, D82E, A85G, E86D, I108V counted along it

[4] = target: Sox2-HMG long (109 aa);Pax9-PRD (mouse;mouse?, UniProt P48432;P47242 41-149;4-130, |); assay: as above; settings: protein: recombinant;recombinant; tags: ;; copies: 1;1; label: 5'-FAM or 5'-Cy5; blunt
Chain of Sox2-HMG long (109 aa);Pax9-PRD (P48432 41-149, chain 1 of 2): as the sequence (P48432 41-149, chain 1 of 2) above
Chain of Sox2-HMG long (109 aa);Pax9-PRD (P47242 4-130, chain 2 of 2): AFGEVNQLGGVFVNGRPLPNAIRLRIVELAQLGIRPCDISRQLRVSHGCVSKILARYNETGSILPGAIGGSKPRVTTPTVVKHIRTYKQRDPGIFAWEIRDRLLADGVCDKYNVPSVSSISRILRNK

[5] = target: Sox2-HMG long (109 aa);Pax3-PRD (mouse;mouse?, UniProt P48432;P24610 41-149;34-161, |); assay: as above; settings: protein: recombinant;recombinant; tags: ;; copies: 1;1; label: 5'-FAM or 5'-Cy5; blunt
Chain of Sox2-HMG long (109 aa);Pax3-PRD (P48432 41-149, chain 1 of 2): as the sequence (P48432 41-149, chain 1 of 2) above
Chain of Sox2-HMG long (109 aa);Pax3-PRD (P24610 34-161, chain 2 of 2): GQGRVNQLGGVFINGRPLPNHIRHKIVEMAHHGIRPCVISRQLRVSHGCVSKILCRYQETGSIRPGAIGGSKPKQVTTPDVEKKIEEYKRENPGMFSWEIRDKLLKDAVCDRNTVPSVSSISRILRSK

Sox2-HMG long (109 aa) [6] = target: T1, Sox2-HMG long (109 aa) (mouse, UniProt P48432 41-149); assay: NMR; 1:1.2 Sox2:DC5; EMSA: 10 mM Tris-HCl pH 8.0, 0.1 mg/ml BSA, 50 uM ZnCl2, 100 mM KCl, 10% glycerol, 0.1% IGEPAL CA-630, 2 mM 2-mercaptoethanol, 1-2 h, gel at 4 C, 100-300 nM DNA; NMR: 50 mM K phosphate, 100 mM NaCl, pH 7.0, 298 K; settings: protein: recombinant; blunt
T1 sequence (P48432 41-149): as the sequence (P48432 41-149, chain 1 of 2) above

Sox2-HMG long (109 aa) [7] = target: T1, Sox2-HMG long (109 aa); assay: EMSA; binary Sox2-DNA complex prominent; EMSA: 10 mM Tris-HCl pH 8.0, 0.1 mg/ml BSA, 50 uM ZnCl2, 100 mM KCl, 10% glycerol, 0.1% IGEPAL CA-630, 2 mM 2-mercaptoethanol, 1-2 h, gel at 4 C, 100-300 nM DNA; NMR: 50 mM K phosphate, 100 mM NaCl, pH 7.0, 298 K; settings: protein: recombinant; label: 5'-FAM or 5'-Cy5; blunt

Chain of Sox2-HMG long (109 aa);Pax6-PRD R44Q (P48432 41-149, chain 1 of 2): as above
Chain of Sox2-HMG long (109 aa);Pax6-PRD R44Q (P63015 4-130 R44Q, chain 2 of 2): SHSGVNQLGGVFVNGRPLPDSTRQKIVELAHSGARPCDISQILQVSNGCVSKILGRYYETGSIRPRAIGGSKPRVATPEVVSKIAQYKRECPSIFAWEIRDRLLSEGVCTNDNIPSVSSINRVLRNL

B1: DC5 (dsDNA)
DNA 1: AAATATTCATTGTTGTTGCTCACCTACCATGGATCC
DNA 2: GGATCCATGGTAGGTGAGCAACAACAATGAATATTT
binding result [1]: binds | binding result [2]: binds | binding result [3]: binds | binding result [4]: binds | binding result [5]: binds

B2: DC5 31-mer (NMR) (dsDNA)
DNA 1: TTCATTGTTGTTGCTCACCTACCATGGATCC
DNA 2: GGATCCATGGTAGGTGAGCAACAACAATGAA
binding result (Sox2-HMG long (109 aa) [6]): binds

B3: DC5con (dsDNA)
DNA 1: AAATATTCATTGTTGATGTTCACGCATCATGGATCC
DNA 2: GGATCCATGATGCGTGAACATCAACAATGAATATTT
binding result (Sox2-HMG long (109 aa) [7]): binds

Reference: article PMC4330359, “DNA-mediated cooperativity facilitates the co-selection of cryptic enhancer sequences by SOX2 and PAX6 transcription factors”
